Results taken from paper PMC10718521, “Complexity of αvβ6-integrin targeting RGD peptide trimers: emergence of non-specific binding by synergistic interaction” (RSC Medicinal Chemistry, 2023).

Tests used:
[1] = format: physicochemical; conditions: pH 7.4
Description: The trimers were labeled with ^68Ga for biodistribution and small-animal PET experiments employing a fully automated method.[39] Non-radioactive reference compounds were obtained by complexation of equimolar amounts of ^natGa^3+ in form of the aq. chloride solution.[39] The polarity of the ^68Ga or ^natGa^3+ containing conjugates, respectively, was assessed by two established proxies, namely the n-octanol/water distribution coefficient at pH 7.4, log D7.4, and the retention time tR on a reverse-phase HPLC column with a suitable liquid-phase gradient (10–50% acetonitrile in water with 0.1% trifluoroacetic acid) (see Fig. 2a). […] A measurable decrease of the log D7.4 was only observed for ≥3 Tyr. […]
(§1) Unless otherwise noted, the materials and the instrumentation used (analytical and preparative HPLC, ESI-MS, gamma counter, centrifuge), and the experimental procedures (^68Ga radiolabeling and radio-TLC for quality control, determination of log D7.4, cultivation of H2009 human lung adenocarcinoma cells, generation of tumor xenografts in CB17 SCID mice, small-animal PET, and biodistribution) were described before.[19] All animal experiments have been carried out according to applicable law and institutional guidelines of Technical University of Munich, and were approved by the responsible local authority (Regierung von Oberbayern). The H2009 cells were regularly authenticated and tested for mycoplasma contamination. The affinities of the pentynoic amide functionalized peptides were determined employing a well-established ELISA protocol on immobilized integrins.[36] TRAP-triazide,[38]FF (previously termed AvB6),[32] and YY (also referred to as Tyr2-alkyne)[33] were synthesized as described previously. RP-HPLC for assessment of compound polarity was done on a 150 × 4.6 mm ReproSil-Pur 120 C18-AQ 5 μm column, with a flow of 0.75 mL min^−1 and a gradient of 10–50% MeCN in water, both containing 0.1% trifluoroacetic acid, within 15 min. The required ^natGa-complexes of the peptide trimers were synthesized by reaction with equimolar amounts of aq. GaCl3 as described.[19]

[2] = in vivo; parameters: species or system mice; conditions: CB17 SCID, mouse, total radioactivity
Excerpt: The biodistribution of all ^68Ga-labeled peptide trimers was investigated in severe combined immunodeficiency (SCID) mice bearing subcutaneous xenografts of the αvβ6-integrin expressing human lung adenocarcinoma cell line H2009 on their right shoulders.
as §1

[3] = tumor/organ ratio Heart (myocard)
[4] = tumor/organ ratio Large intestine (empty)
[5] = tumor/organ ratio Small intestine (empty)
[6] = tumor/organ ratio Stomach (empty)

Row | Structure (SMILES) | logD [1] | tissue uptake at 1.5 h ([2]; Adrenals uptake) | tissue uptake at 1.5 h ([2]; Blood uptake) | tissue uptake at 1.5 h ([2]; Heart (myocard) uptake) | tissue uptake at 1.5 h ([2]; Kidneys uptake) | tissue uptake at 1.5 h ([2]; Large intestine (empty) uptake) | tissue uptake at 1.5 h ([2]; Liver uptake) | tissue uptake at 1.5 h ([2]; Lung uptake) | tissue uptake at 1.5 h ([2]; Muscle uptake) | tissue uptake at 1.5 h ([2]; Pancreas uptake) | tissue uptake at 1.5 h ([2]; Small intestine (empty) uptake) | tissue uptake at 1.5 h ([2]; Spleen uptake) | tissue uptake at 1.5 h ([2]; Stomach (empty) uptake) | tissue uptake at 1.5 h ([2]; Tumor H2009 uptake) | tissue to tissue ratio at 1.5 h ([2]; tumor/organ ratio Adrenals) | tissue to tissue ratio at 1.5 h ([2]; tumor/organ ratio Blood) | tissue to tissue ratio at 1.5 h [2, 3] | tissue to tissue ratio at 1.5 h ([2]; tumor/organ ratio Kidneys) | tissue to tissue ratio at 1.5 h [2, 4] | tissue to tissue ratio at 1.5 h ([2]; tumor/organ ratio Liver) | also measured
1 | CC(C)C[C@@H]1NC(=O)[C@H](CC(=O)O)NC(=O)CNC(=O)[C@H](CCCNC(=N)N)NC(=O)[C@H](Cc2ccccc2)NC(=O)[C@H](CCCCNC(=O)CCc2cn(CCCNC(=O)CCP(=O)(O)CN3CCN(CP(=O)(O)CCC(=O)NCCCn4cc(CCC(=O)NCCCC[C@H]5C(=O)N[C@@H](Cc6ccccc6)C(=O)N[C@@H](CCCNC(=N)N)C(=O)NCC(=O)N[C@@H](CC(=O)O)C(=O)N[C@@H](CC(C)C)C(=O)N[C@@H](C)C(=O)N[C@@H](Cc6ccccc6)C(=O)N6CCC[C@@H]6C(=O)N5C)nn4)CCN(CP(=O)(O)CCC(=O)NCCCn4cc(CCC(=O)NCCCC[C@H]5C(=O)N[C@@H](Cc6ccccc6)C(=O)N[C@@H](CCCNC(=N)N)C(=O)NCC(=O)N[C@@H](CC(=O)O)C(=O)N[C@@H](CC(C)C)C(=O)N[C@@H](C)C(=O)N[C@@H](Cc6ccc(O)cc6)C(=O)N6CCC[C@@H]6C(=O)N5C)nn4)CC3)nn2)N(C)C(=O)[C@H]2CCCN2C(=O)[C@H](Cc2ccccc2)NC(=O)[C@H](C)NC1=O (68Ga complex, metal not drawn) [Y1F] | -1.4 ± 0.1 | 1.26 ± 0.24 %ID/g | 2.57 ± 0.33 %ID/g | 1.2 ± 0.16 %ID/g | 111 ± 15.3 %ID/g | 4.43 ± 1.28 %ID/g | 3.86 ± 0.17 %ID/g | 8.81 ± 0.64 %ID/g | 0.97 ± 0.48 %ID/g | 0.61 ± 0.1 %ID/g | 2.86 ± 0.57 %ID/g | 3.48 ± 0.49 %ID/g | 7.37 ± 1.23 %ID/g | 8.08 ± 1.35 %ID/g | 6.5 ± 0.8 | 3.2 ± 0.6 | 6.8 ± 1.2 | 0.1 | 2 ± 0.9 | 2.1 ± 0.4 | log D7.4 [1]: −1.4 to −1.5; tissue to tissue ratio at 1.5 h ([2]; tumor/organ ratio Lung): 0.9 ± 0.1; tissue to tissue ratio at 1.5 h ([2]; tumor/organ ratio Muscle): 9.5 ± 3.2; tissue to tissue ratio at 1.5 h ([2]; tumor/organ ratio Pancreas): 13.3 ± 2.3; tissue to tissue ratio at 1.5 h [2, 5]: 2.9 ± 0.9; tissue to tissue ratio at 1.5 h ([2]; tumor/organ ratio Spleen): 2.4 ± 0.2; tissue to tissue ratio at 1.5 h [2, 6]: 1.1 ± 0.3
2 | CC(C)C[C@@H]1NC(=O)[C@H](CC(=O)O)NC(=O)CNC(=O)[C@H](CCCNC(=N)N)NC(=O)[C@H](Cc2ccccc2)NC(=O)[C@H](CCCCNC(=O)CCc2cn(CCCNC(=O)CCP(=O)(O)CN3CCN(CP(=O)(O)CCC(=O)NCCCn4cc(CCC(=O)NCCCC[C@H]5C(=O)N[C@@H](Cc6ccc(O)cc6)C(=O)N[C@@H](CCCNC(=N)N)C(=O)NCC(=O)N[C@@H](CC(=O)O)C(=O)N[C@@H](CC(C)C)C(=O)N[C@@H](C)C(=O)N[C@@H](Cc6ccc(O)cc6)C(=O)N6CCC[C@@H]6C(=O)N5C)nn4)CCN(CP(=O)(O)CCC(=O)NCCCn4cc(CCC(=O)NCCCC[C@H]5C(=O)N[C@@H](Cc6ccc(O)cc6)C(=O)N[C@@H](CCCNC(=N)N)C(=O)NCC(=O)N[C@@H](CC(=O)O)C(=O)N[C@@H](CC(C)C)C(=O)N[C@@H](C)C(=O)N[C@@H](Cc6ccc(O)cc6)C(=O)N6CCC[C@@H]6C(=O)N5C)nn4)CC3)nn2)N(C)C(=O)[C@H]2CCCN2C(=O)[C@H](Cc2ccccc2)NC(=O)[C@H](C)NC1=O (68Ga complex, metal not drawn) [Y4] | -1.9 ± 0.1 | 0.71 ± 0.37 %ID/g | 0.86 ± 0.26 %ID/g | 0.47 ± 0.12 %ID/g | 91.3 ± 8.28 %ID/g | 2.29 ± 0.59 %ID/g | 0.93 ± 0.14 %ID/g | 3.22 ± 0.63 %ID/g | 1.41 ± 0.06 %ID/g | 0.28 ± 0.08 %ID/g | 1.35 ± 0.53 %ID/g | 1.57 ± 0.57 %ID/g | 4.92 ± 1.06 %ID/g | 4.47 ± 0.96 %ID/g | 7.1 ± 1.9 | 5.5 ± 1.4 | 9.6 ± 1.3 | 0.1 | 2.1 ± 0.6 | 5 ± 0.5 | tissue to tissue ratio at 1.5 h ([2]; tumor/organ ratio Lung): 1.4 ± 0.2; tissue to tissue ratio at 1.5 h ([2]; tumor/organ ratio Muscle): 12.2 ± 2.8; tissue to tissue ratio at 1.5 h ([2]; tumor/organ ratio Pancreas): 16.5 ± 1.6; tissue to tissue ratio at 1.5 h [2, 5]: 3.7 ± 1; tissue to tissue ratio at 1.5 h ([2]; tumor/organ ratio Spleen): 3 ± 0.7; tissue to tissue ratio at 1.5 h [2, 6]: 1 ± 0.3
3 | CC(C)C[C@@H]1NC(=O)[C@H](CC(=O)O)NC(=O)CNC(=O)[C@H](CCCNC(=N)N)NC(=O)[C@H](Cc2ccccc2)NC(=O)[C@H](CCCCNC(=O)CCc2cn(CCCNC(=O)CCP(=O)(O)CN3CCN(CP(=O)(O)CCC(=O)NCCCn4cc(CCC(=O)NCCCC[C@H]5C(=O)N[C@@H](Cc6ccccc6)C(=O)N[C@@H](CCCNC(=N)N)C(=O)NCC(=O)N[C@@H](CC(=O)O)C(=O)N[C@@H](CC(C)C)C(=O)N[C@@H](C)C(=O)N[C@@H](Cc6ccc(O)cc6)C(=O)N6CCC[C@@H]6C(=O)N5C)nn4)CCN(CP(=O)(O)CCC(=O)NCCCn4cc(CCC(=O)NCCCC[C@H]5C(=O)N[C@@H](Cc6ccccc6)C(=O)N[C@@H](CCCNC(=N)N)C(=O)NCC(=O)N[C@@H](CC(=O)O)C(=O)N[C@@H](CC(C)C)C(=O)N[C@@H](C)C(=O)N[C@@H](Cc6ccc(O)cc6)C(=O)N6CCC[C@@H]6C(=O)N5C)nn4)CC3)nn2)N(C)C(=O)[C@H]2CCCN2C(=O)[C@H](Cc2ccc(O)cc2)NC(=O)[C@H](C)NC1=O (68Ga complex, metal not drawn) [Y3F] | -1.8 ± 0.1 | 0.77 ± 0.42 %ID/g | 0.96 ± 0.3 %ID/g | 0.62 ± 0.15 %ID/g | 71.1 ± 15 %ID/g | 5.15 ± 2.63 %ID/g | 0.95 ± 0.22 %ID/g | 4.83 ± 1.54 %ID/g | 0.66 ± 0.25 %ID/g | 0.34 ± 0.11 %ID/g | 2.6 ± 0.9 %ID/g | 2.38 ± 0.31 %ID/g | 5.64 ± 1.94 %ID/g | 6.69 ± 1.21 %ID/g | 10.3 ± 3.8 | 7.2 ± 1.1 | 10.9 ± 0.8 | 0.1 | 1.6 ± 0.7 | 7.1 ± 0.7 | tissue to tissue ratio at 1.5 h ([2]; tumor/organ ratio Lung): 1.5 ± 0.3; tissue to tissue ratio at 1.5 h ([2]; tumor/organ ratio Muscle): 10.9 ± 3; tissue to tissue ratio at 1.5 h ([2]; tumor/organ ratio Pancreas): 20.4 ± 3.1; tissue to tissue ratio at 1.5 h [2, 5]: 2.7 ± 0.5; tissue to tissue ratio at 1.5 h ([2]; tumor/organ ratio Spleen): 2.8 ± 0.4; tissue to tissue ratio at 1.5 h [2, 6]: 1.3 ± 0.3
4 | CC(C)C[C@@H]1NC(=O)[C@H](CC(=O)O)NC(=O)CNC(=O)[C@H](CCCNC(=N)N)NC(=O)[C@H](Cc2ccccc2)NC(=O)[C@H](CCCCNC(=O)CCc2cn(CCCNC(=O)CCP(=O)(O)CN3CCN(CP(=O)(O)CCC(=O)NCCCn4cc(CCC(=O)NCCCC[C@H]5C(=O)N[C@@H](Cc6ccccc6)C(=O)N[C@@H](CCCNC(=N)N)C(=O)NCC(=O)N[C@@H](CC(=O)O)C(=O)N[C@@H](CC(C)C)C(=O)N[C@@H](C)C(=O)N[C@@H](Cc6ccccc6)C(=O)N6CCC[C@@H]6C(=O)N5C)nn4)CCN(CP(=O)(O)CCC(=O)NCCCn4cc(CCC(=O)NCCCC[C@H]5C(=O)N[C@@H](Cc6ccccc6)C(=O)N[C@@H](CCCNC(=N)N)C(=O)NCC(=O)N[C@@H](CC(=O)O)C(=O)N[C@@H](CC(C)C)C(=O)N[C@@H](C)C(=O)N[C@@H](Cc6ccccc6)C(=O)N6CCC[C@@H]6C(=O)N5C)nn4)CC3)nn2)N(C)C(=O)[C@H]2CCCN2C(=O)[C@H](Cc2ccccc2)NC(=O)[C@H](C)NC1=O (68Ga complex, metal not drawn) [Y0] | -1.5 ± 0.1 | 2.4 ± 0.38 %ID/g | 4.01 ± 0.74 %ID/g | 2.13 ± 0.42 %ID/g | 90.7 ± 6.7 %ID/g | 5.74 ± 1.36 %ID/g | 7.55 ± 0.78 %ID/g | 16.9 ± 5.34 %ID/g | 1.1 ± 0.22 %ID/g | 0.91 ± 0.22 %ID/g | 4.2 ± 1.07 %ID/g | 5.21 ± 1.05 %ID/g | 10.3 ± 1.62 %ID/g | 8.73 ± 0.81 %ID/g |  |  |  |  |  |  | log D7.4 [1]: −1.4 to −1.5
